Measurements reported in article PMC5349888, “Thyroid transcription factor FOXE1 interacts with ETS factor ELK1 to co-regulate TERT”.

Tests used:
FOXE1-Flag = target: T1, FOXE1-Flag (human, UniProt O00358 1-373); assay: EMSA; positive control; EMSA: 1 ug protein, 150 mM KCl, 50 ng/uL poly(dI-dC), 10% glycerol, 10 mM Tris pH 7.5, room temperature 30 min; 6% polyacrylamide gel; details: protein: recombinant; tags: 3xFlag (p3XFlag-CMV-7.1); label: 5' biotin; blunt
T1 sequence: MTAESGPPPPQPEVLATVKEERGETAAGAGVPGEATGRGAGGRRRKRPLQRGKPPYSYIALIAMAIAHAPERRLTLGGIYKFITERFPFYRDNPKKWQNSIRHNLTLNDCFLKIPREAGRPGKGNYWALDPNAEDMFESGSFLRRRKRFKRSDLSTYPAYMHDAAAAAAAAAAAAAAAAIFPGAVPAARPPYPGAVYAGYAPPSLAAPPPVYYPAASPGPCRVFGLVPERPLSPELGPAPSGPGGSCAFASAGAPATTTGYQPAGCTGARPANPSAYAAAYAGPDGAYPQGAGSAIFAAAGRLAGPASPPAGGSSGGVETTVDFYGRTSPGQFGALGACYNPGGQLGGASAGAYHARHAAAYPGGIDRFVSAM

ELK1-HA = target: T2, ELK1-HA (human, UniProt P19419 1-428); assay: EMSA; ELK1 alone; EMSA: 1 ug protein, 150 mM KCl, 50 ng/uL poly(dI-dC), 10% glycerol, 10 mM Tris pH 7.5, room temperature 30 min; 6% polyacrylamide gel; details: protein: recombinant; tags: HA (pCMV-HA-N); label: 5' biotin; blunt
T2 sequence: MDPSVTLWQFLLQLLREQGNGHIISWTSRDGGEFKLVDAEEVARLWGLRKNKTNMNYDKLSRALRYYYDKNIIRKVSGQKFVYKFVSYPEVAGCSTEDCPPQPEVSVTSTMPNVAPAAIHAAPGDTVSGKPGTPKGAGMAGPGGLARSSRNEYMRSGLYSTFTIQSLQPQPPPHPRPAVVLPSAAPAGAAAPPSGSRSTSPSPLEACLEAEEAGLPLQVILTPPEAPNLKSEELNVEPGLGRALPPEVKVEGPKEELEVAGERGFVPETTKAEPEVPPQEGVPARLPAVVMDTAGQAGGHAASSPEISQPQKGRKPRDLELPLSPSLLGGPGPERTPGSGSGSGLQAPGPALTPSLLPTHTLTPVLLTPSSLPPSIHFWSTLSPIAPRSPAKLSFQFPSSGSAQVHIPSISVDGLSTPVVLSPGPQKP

FOXE1-Flag;ELK1-HA = target: T3, FOXE1-Flag;ELK1-HA (human;human, UniProt O00358;P19419 1-373;1-428, |); assay: EMSA; FOXE1 shifts only with ELK1 present; EMSA: 1 ug protein, 150 mM KCl, 50 ng/uL poly(dI-dC), 10% glycerol, 10 mM Tris pH 7.5, room temperature 30 min; 6% polyacrylamide gel; details: protein: recombinant;recombinant; tags: 3xFlag (p3XFlag-CMV-7.1);HA (pCMV-HA-N); copies: 1;1; label: 5' biotin; blunt
T3 sequence 1: T1 sequence
T3 sequence 2: T2 sequence

B1: TG promoter K region probe (dsDNA)
DNA 1: GAGGGAGTTCCTGTGACTAGCAGAGAAAACAAAGTGAGCCAC
DNA 2: GTGGCTCACTTTGTTTTCTCTGCTAGTCACAGGAACTCCCTC
- binding result (FOXE1-Flag): binds

B2: TERT promoter probe (dsDNA)
DNA 1: CCCCGCCCCGTCCCGACCCCTCCCGGGTCCCCGGCCCAGCCCCCTCCGGGCCCTCCCAGCCCCTCCCCTTCCTTTCCGCGGCCCC
DNA 2: GGGGCCGCGGAAAGGAAGGGGAGGGGCTGGGAGGGCCCGGAGGGGGCTGGGCCGGGGACCCGGGAGGGGTCGGGACGGGGCGGGG
- binding result (ELK1-HA): binds
- binding result (FOXE1-Flag;ELK1-HA): binds
